What was measured:
Assay in all cases: holdup assay
Set-up in all cases: key: below the threshold = too weak to quantify, mostly under pKd 3.1 to 4
Inadl_5, Q8NI35 = target: Inadl_5, Q8NI35
GRASP, Q7Z6J2 = target: GRASP, Q7Z6J2
MAGI3_2, Q5TCQ9 = target: MAGI3_2, Q5TCQ9
GRIP2_3, Q9C0E4 = target: GRIP2_3, Q9C0E4
NHERF2_2, Q15599 = target: NHERF2_2, Q15599
SNTG2, Q9NY99 = target: T1, SNTG2, Q9NY99
T1 sequence (Q9NY99 68-166, limits assumed, looked up): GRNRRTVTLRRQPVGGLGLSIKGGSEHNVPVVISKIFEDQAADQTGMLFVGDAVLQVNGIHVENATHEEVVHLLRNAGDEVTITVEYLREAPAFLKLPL

LRRC7, Q96NW7 = target: T2, LRRC7, Q96NW7
T2 sequence (Q96NW7 1440-1537, limits assumed, looked up): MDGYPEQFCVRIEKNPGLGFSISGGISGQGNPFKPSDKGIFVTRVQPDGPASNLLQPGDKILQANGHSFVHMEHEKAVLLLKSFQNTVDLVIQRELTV

CARD11, Q9BXL7 = target: T3, CARD11, Q9BXL7
T3 sequence (Q9BXL7 662-765, limits assumed, looked up): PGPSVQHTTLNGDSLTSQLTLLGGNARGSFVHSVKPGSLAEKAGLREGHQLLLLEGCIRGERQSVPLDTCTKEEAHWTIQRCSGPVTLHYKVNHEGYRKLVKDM

LAP2, Q96RT1 = target: LAP2, Q96RT1
HTRA4, P83105 = target: T4, HTRA4, P83105
T4 sequence (P83105 378-476, limits assumed, looked up): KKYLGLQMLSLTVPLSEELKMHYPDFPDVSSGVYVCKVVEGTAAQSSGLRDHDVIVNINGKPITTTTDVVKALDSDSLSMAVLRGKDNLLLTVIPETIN

MPDZ_5, O75970 = target: T5, MPDZ_5, O75970
T5 sequence (O75970 695-796, limits assumed, looked up): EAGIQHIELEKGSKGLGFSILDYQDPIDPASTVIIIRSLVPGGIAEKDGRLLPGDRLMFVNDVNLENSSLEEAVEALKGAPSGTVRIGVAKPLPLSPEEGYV

HTRA1, Q92743 = target: HTRA1, Q92743
NHERF4_1, Q86UT5-2 = target: NHERF4_1, Q86UT5-2
NHERF3_4, Q5T2W1 = target: T6, NHERF3_4, Q5T2W1
T6 sequence (Q5T2W1 373-468, limits assumed, looked up): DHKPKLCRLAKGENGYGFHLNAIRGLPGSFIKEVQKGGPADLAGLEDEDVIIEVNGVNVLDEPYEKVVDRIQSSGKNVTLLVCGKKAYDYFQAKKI

PTPN13_1, Q12923 = target: T7, PTPN13_1, Q12923
T7 sequence (Q12923 1088-1188, limits assumed, looked up): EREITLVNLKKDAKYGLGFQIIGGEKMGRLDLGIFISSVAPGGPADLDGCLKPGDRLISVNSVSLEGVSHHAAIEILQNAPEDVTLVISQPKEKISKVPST

TJP1_3, Q07157 = target: TJP1_3, Q07157
SIPA1L2, Q9P2F8 = target: T8, SIPA1L2, Q9P2F8
T8 sequence (Q9P2F8 945-1036, limits assumed, looked up): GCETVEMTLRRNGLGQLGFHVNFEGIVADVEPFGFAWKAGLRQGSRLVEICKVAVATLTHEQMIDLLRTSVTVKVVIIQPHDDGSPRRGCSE

DLG4_2, P78352 = target: DLG4_2, P78352
MPP2, Q14168 = target: T9, MPP2, Q14168
T9 sequence (Q14168 180-250, limits assumed, looked up): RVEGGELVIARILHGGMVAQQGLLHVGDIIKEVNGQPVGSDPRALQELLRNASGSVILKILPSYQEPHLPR

SNTB1, Q13884 = target: T10, SNTB1, Q13884
T10 sequence (Q13884 107-205, limits assumed, looked up): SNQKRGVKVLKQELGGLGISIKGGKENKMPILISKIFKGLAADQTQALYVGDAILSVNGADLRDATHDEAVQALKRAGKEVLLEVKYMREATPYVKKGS

DLG4_3, P78352 = target: DLG4_3, P78352
Inadl_1, Q8NI35 = target: Inadl_1, Q8NI35
DLG1_2, Q12959 = target: DLG1_2, Q12959
FRMPD2_2, Q68DX3 = target: FRMPD2_2, Q68DX3
FRMPD1, Q5SYB0 = target: T11, FRMPD1, Q5SYB0
T11 sequence (Q5SYB0 52-145, limits assumed, looked up): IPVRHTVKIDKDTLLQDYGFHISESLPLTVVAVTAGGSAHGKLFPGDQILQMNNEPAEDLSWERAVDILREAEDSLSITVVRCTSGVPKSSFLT

PICK1, Q9NRD5 = target: PICK1, Q9NRD5
[1] = plain residues with an end cap or a label only (N-terminal biotin on a linker: (peg)3)
[2] = plain residues with an end cap or a label only (N-terminal biotin on a linker: ado-ado)

DLG4_3, P78352, sequence (P78352 306-403): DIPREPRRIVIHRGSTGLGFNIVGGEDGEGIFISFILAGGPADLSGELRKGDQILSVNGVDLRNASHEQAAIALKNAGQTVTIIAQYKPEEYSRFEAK
DLG1_2, Q12959, sequence (Q12959 314-412): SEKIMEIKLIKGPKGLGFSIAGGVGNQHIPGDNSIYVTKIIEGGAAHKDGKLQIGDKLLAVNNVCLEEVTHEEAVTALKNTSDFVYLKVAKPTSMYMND
Inadl_5, Q8NI35, sequence (Q8NI35 673-780): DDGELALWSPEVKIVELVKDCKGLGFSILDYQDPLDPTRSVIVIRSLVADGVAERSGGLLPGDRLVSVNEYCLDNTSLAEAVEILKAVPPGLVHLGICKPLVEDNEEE
MAGI3_2, Q5TCQ9, sequence (Q5TCQ9 398-503): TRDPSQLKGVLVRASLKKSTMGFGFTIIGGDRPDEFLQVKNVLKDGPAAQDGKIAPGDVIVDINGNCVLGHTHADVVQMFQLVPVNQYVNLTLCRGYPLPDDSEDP
DLG4_2, P78352, sequence (P78352 155-259): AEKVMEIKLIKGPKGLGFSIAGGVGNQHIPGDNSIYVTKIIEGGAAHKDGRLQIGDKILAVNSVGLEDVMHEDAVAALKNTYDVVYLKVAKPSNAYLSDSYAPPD
HTRA1, Q92743, sequence (Q92743 360-477): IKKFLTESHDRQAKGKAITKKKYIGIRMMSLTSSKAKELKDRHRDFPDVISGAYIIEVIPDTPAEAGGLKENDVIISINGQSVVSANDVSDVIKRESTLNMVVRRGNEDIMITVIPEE
GRASP, Q7Z6J2, sequence (Q7Z6J2 96-193): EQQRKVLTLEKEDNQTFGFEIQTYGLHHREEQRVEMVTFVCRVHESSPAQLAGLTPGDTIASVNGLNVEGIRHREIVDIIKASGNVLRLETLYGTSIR
NHERF4_1, Q86UT5-2, sequence (Q86UT5 other isoform, or with tags, fused parts or gaps): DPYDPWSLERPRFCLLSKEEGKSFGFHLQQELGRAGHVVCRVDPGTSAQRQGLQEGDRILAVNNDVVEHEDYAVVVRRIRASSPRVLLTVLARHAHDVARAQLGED
FRMPD2_2, Q68DX3, sequence (Q68DX3 944-1038): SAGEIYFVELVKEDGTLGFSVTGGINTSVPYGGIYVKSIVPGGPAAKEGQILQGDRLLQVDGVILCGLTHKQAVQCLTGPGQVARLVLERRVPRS
Inadl_1, Q8NI35, sequence (Q8NI35 113-229): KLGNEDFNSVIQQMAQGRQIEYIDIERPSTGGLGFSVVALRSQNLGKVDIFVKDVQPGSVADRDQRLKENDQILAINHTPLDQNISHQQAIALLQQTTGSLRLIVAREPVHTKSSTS
NHERF2_2, Q15599, sequence (Q15599 142-238): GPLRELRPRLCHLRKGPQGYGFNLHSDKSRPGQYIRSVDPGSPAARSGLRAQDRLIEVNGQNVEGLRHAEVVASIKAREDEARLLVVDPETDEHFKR
LAP2, Q96RT1, sequence (Q96RT1 other isoform, or with tags, fused parts or gaps): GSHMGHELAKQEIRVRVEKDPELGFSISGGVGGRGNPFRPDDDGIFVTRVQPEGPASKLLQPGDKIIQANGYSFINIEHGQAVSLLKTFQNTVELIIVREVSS
GRIP2_3, Q9C0E4, sequence (Q9C0E4 238-339): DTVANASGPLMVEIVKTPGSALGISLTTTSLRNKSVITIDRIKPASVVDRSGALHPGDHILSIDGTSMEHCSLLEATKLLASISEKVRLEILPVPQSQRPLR
PICK1, Q9NRD5, sequence (Q9NRD5 17-115): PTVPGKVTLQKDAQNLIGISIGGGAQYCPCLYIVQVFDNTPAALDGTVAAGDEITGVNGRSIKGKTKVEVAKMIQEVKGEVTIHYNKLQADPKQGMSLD
TJP1_3, Q07157, sequence (Q07157 416-512): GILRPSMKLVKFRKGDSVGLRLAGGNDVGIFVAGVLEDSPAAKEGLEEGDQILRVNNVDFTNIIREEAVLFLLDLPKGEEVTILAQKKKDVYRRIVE

B1: SARS-Cov2-3a, P0DTC3 (peptide)
chain: YDEPTTTTSVPL
pKd (Inadl_5, Q8NI35; [1]): below the threshold
pKd (GRASP, Q7Z6J2; [1]): 3.83
pKd (MAGI3_2, Q5TCQ9; [1]): below the threshold
pKd (GRIP2_3, Q9C0E4; [1]): below the threshold
pKd (NHERF2_2, Q15599; [1]): below the threshold
pKd (SNTG2, Q9NY99; [1]): below the threshold
pKd (LRRC7, Q96NW7; [1]): below the threshold
pKd (CARD11, Q9BXL7; [1]): below the threshold
pKd (LAP2, Q96RT1; [1]): below the threshold
pKd (HTRA4, P83105; [1]): below the threshold
pKd (MPDZ_5, O75970; [1]): below the threshold
pKd (HTRA1, Q92743; [1]): below the threshold
pKd (NHERF4_1, Q86UT5-2; [1]): 4.43
pKd (NHERF3_4, Q5T2W1; [1]): 4.29
pKd (PTPN13_1, Q12923; [1]): below the threshold
pKd (TJP1_3, Q07157; [1]): below the threshold
pKd (SIPA1L2, Q9P2F8; [1]): below the threshold
pKd (DLG4_2, P78352; [1]): below the threshold
pKd (MPP2, Q14168; [1]): below the threshold
pKd (SNTB1, Q13884; [1]): below the threshold
pKd (DLG4_3, P78352; [1]): below the threshold
pKd (Inadl_1, Q8NI35; [1]): below the threshold
pKd (DLG1_2, Q12959; [1]): below the threshold
pKd (FRMPD2_2, Q68DX3; [1]): below the threshold
pKd (FRMPD1, Q5SYB0; [1]): below the threshold
pKd (PICK1, Q9NRD5; [1]): below the threshold

B2: ADRB1, P08588 (peptide)
chain: RPGFASESKV
pKd (Inadl_5, Q8NI35; [2]): below the threshold
pKd (GRASP, Q7Z6J2; [2]): below the threshold
pKd (MAGI3_2, Q5TCQ9; [2]): 5.13
pKd (GRIP2_3, Q9C0E4; [2]): below the threshold
pKd (NHERF2_2, Q15599; [2]): below the threshold
pKd (SNTG2, Q9NY99; [2]): 4.35
pKd (LRRC7, Q96NW7; [2]): 3.59
pKd (CARD11, Q9BXL7; [2]): below the threshold
pKd (LAP2, Q96RT1; [2]): 3.95
pKd (HTRA4, P83105; [2]): below the threshold
pKd (MPDZ_5, O75970; [2]): below the threshold
pKd (HTRA1, Q92743; [2]): below the threshold
pKd (NHERF4_1, Q86UT5-2; [2]): below the threshold
pKd (NHERF3_4, Q5T2W1; [2]): below the threshold
pKd (PTPN13_1, Q12923; [2]): below the threshold
pKd (TJP1_3, Q07157; [2]): below the threshold
pKd (SIPA1L2, Q9P2F8; [2]): below the threshold
pKd (DLG4_2, P78352; [2]): 4.22
pKd (MPP2, Q14168; [2]): below the threshold
pKd (SNTB1, Q13884; [2]): 4.35
pKd (DLG4_3, P78352; [2]): below the threshold
pKd (Inadl_1, Q8NI35; [2]): below the threshold
pKd (DLG1_2, Q12959; [2]): 4.49
pKd (FRMPD2_2, Q68DX3; [2]): 3.5
pKd (FRMPD1, Q5SYB0; [2]): below the threshold
pKd (PICK1, Q9NRD5; [2]): below the threshold

B3: JAM3, Q9BX67 (peptide)
chain: DFRHKSSFVI
pKd (Inadl_5, Q8NI35; [2]): below the threshold
pKd (GRASP, Q7Z6J2; [2]): below the threshold
pKd (MAGI3_2, Q5TCQ9; [2]): below the threshold
pKd (GRIP2_3, Q9C0E4; [2]): below the threshold
pKd (NHERF2_2, Q15599; [2]): below the threshold
pKd (SNTG2, Q9NY99; [2]): below the threshold
pKd (LRRC7, Q96NW7; [2]): below the threshold
pKd (CARD11, Q9BXL7; [2]): below the threshold
pKd (LAP2, Q96RT1; [2]): below the threshold
pKd (HTRA4, P83105; [2]): below the threshold
pKd (MPDZ_5, O75970; [2]): below the threshold
pKd (HTRA1, Q92743; [2]): 4.64
pKd (NHERF4_1, Q86UT5-2; [2]): below the threshold
pKd (NHERF3_4, Q5T2W1; [2]): below the threshold
pKd (PTPN13_1, Q12923; [2]): below the threshold
pKd (TJP1_3, Q07157; [2]): below the threshold
pKd (SIPA1L2, Q9P2F8; [2]): below the threshold
pKd (DLG4_2, P78352; [2]): below the threshold
pKd (MPP2, Q14168; [2]): 3.67
pKd (SNTB1, Q13884; [2]): below the threshold
pKd (DLG4_3, P78352; [2]): below the threshold
pKd (Inadl_1, Q8NI35; [2]): below the threshold
pKd (DLG1_2, Q12959; [2]): below the threshold
pKd (FRMPD2_2, Q68DX3; [2]): below the threshold
pKd (FRMPD1, Q5SYB0; [2]): below the threshold
pKd (PICK1, Q9NRD5; [2]): below the threshold

B4: GJD2, Q9UKL4 (peptide)
chain: RTQSSDSAYV
pKd (Inadl_5, Q8NI35; [2]): 3.5
pKd (GRASP, Q7Z6J2; [2]): 3.48
pKd (MAGI3_2, Q5TCQ9; [2]): below the threshold
pKd (GRIP2_3, Q9C0E4; [2]): below the threshold
pKd (NHERF2_2, Q15599; [2]): 3.49
pKd (SNTG2, Q9NY99; [2]): below the threshold
pKd (LRRC7, Q96NW7; [2]): below the threshold
pKd (CARD11, Q9BXL7; [2]): below the threshold
pKd (LAP2, Q96RT1; [2]): below the threshold
pKd (HTRA4, P83105; [2]): below the threshold
pKd (MPDZ_5, O75970; [2]): below the threshold
pKd (HTRA1, Q92743; [2]): 4.6
pKd (NHERF4_1, Q86UT5-2; [2]): 3.6
pKd (NHERF3_4, Q5T2W1; [2]): 3.54
pKd (PTPN13_1, Q12923; [2]): below the threshold
pKd (TJP1_3, Q07157; [2]): below the threshold
pKd (SIPA1L2, Q9P2F8; [2]): below the threshold
pKd (DLG4_2, P78352; [2]): 3.65
pKd (MPP2, Q14168; [2]): below the threshold
pKd (SNTB1, Q13884; [2]): below the threshold
pKd (DLG4_3, P78352; [2]): below the threshold
pKd (Inadl_1, Q8NI35; [2]): below the threshold
pKd (DLG1_2, Q12959; [2]): 3.88
pKd (FRMPD2_2, Q68DX3; [2]): below the threshold
pKd (FRMPD1, Q5SYB0; [2]): below the threshold
pKd (PICK1, Q9NRD5; [2]): below the threshold

B5: MAP7D2, Q96T17 (peptide)
chain: GQETPLNTFC
pKd (Inadl_5, Q8NI35; [2]): below the threshold
pKd (GRASP, Q7Z6J2; [2]): below the threshold
pKd (MAGI3_2, Q5TCQ9; [2]): below the threshold
pKd (GRIP2_3, Q9C0E4; [2]): below the threshold
pKd (NHERF2_2, Q15599; [2]): 3.94
pKd (SNTG2, Q9NY99; [2]): 3.7
pKd (LRRC7, Q96NW7; [2]): below the threshold
pKd (CARD11, Q9BXL7; [2]): below the threshold
pKd (LAP2, Q96RT1; [2]): below the threshold
pKd (HTRA4, P83105; [2]): below the threshold
pKd (MPDZ_5, O75970; [2]): below the threshold
pKd (HTRA1, Q92743; [2]): 3.79
pKd (NHERF4_1, Q86UT5-2; [2]): 3.6
pKd (NHERF3_4, Q5T2W1; [2]): below the threshold
pKd (PTPN13_1, Q12923; [2]): below the threshold
pKd (TJP1_3, Q07157; [2]): below the threshold
pKd (SIPA1L2, Q9P2F8; [2]): below the threshold
pKd (DLG4_2, P78352; [2]): 3.48
pKd (MPP2, Q14168; [2]): below the threshold
pKd (SNTB1, Q13884; [2]): below the threshold
pKd (DLG4_3, P78352; [2]): 3.6
pKd (Inadl_1, Q8NI35; [2]): below the threshold
pKd (DLG1_2, Q12959; [2]): below the threshold
pKd (FRMPD2_2, Q68DX3; [2]): below the threshold
pKd (FRMPD1, Q5SYB0; [2]): below the threshold
pKd (PICK1, Q9NRD5; [2]): below the threshold

Reference: article PMC9482650, “Quantitative fragmentomics allow affinity mapping of interactomes” (Nature Communications, 2022)
